# According to patent US20230357323A1 (University of Washington, published 2023):
# T1: human IL-23R (hIL-23R), custom construct with C-terminal avi and his tags, biotinylated (human, UniProt Q5VWK5 24-355, limits assumed, enzymatically biotinylated via the avi-tag)
# T1 construct: immobilized on streptavidin tips in BLI, labeled target in FACS; also called human IL-23 receptor
# T1 sequence (looked up): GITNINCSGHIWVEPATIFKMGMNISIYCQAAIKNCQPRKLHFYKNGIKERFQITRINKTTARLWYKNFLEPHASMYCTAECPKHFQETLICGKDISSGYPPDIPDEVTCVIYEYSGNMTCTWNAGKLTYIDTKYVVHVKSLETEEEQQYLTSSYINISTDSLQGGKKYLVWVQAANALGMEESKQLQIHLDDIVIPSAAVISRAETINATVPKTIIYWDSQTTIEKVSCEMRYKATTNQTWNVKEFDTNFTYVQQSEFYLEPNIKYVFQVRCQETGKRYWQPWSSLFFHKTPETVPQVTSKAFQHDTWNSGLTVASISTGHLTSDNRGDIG
# Molecular target: T1, human IL-23R (hIL-23R), custom …
# Assay: yeast display FACS, SIF incubation then labeled hIL-23R, 5-7 rounds
# Method: Yeast libraries were first incubated in SIF at 30C, then washed thoroughly and incubated with labeled hIL-23R, and cells retaining the highest binding signal (top 1-5%) were collected by FACS. Two rounds of selection were performed for each library, and the SIF incubation time and/or concentration of proteases were increased from first to second round. […] Indeed in several libraries we saw a large population of Myc-negative, binding-positive cells. In parallel, we performed two rounds of selection for binding to hIL-23R only, without pre-incubation in SIF. […] Best mutations were included in combinatorial libraries, sorted as above for 5-7 rounds after which individual clones were sequenced. Variants present in the final sorts were expressed in E. coli and characterized (SEQ ID NOS: 70-74 and 153-164).
# (§1) Yeast strain EBY100 was transformed with each library and vector by electroporation and grow in minimal media selective for the yeast strain (-ura) and the transforming plasmid (-trp).²⁷ Expression was induced with 2% galactose. Surface expression was detected with anti-Myc-FITC (Immunology Consultants Laboratory) conjugate, and binding to biotinylated IL-23R was detected with streptavidin-PE (Invitrogen).
# SIF SSM and combinatorial libraries were prepared as follows: after 16-24 hours induction, yeast were spun down, washed with PBSF, resuspended in SIF (recipe described below) at an OD of 2.0, and incubated at 30° C. shaking for 30-90 minutes as noted. After SIF digest, cells were spun down and washed 4 times with 800 uL PBSF, manually aspirating the supernatant each time to ensure complete washing to remove proteases. SIF-treated cells were then treated with target protein as described above.
row,binding result,Binder
1,binds,rA11dslf02B (designed binder) MEPEEFLLELCKAYYEGKLSQIEAVEEIRHYARSFGLEAWQLIWYFMQCVKRDI
2,binds,rA11dslf02A (designed binder) MEPEKFLKELCKAYYEGKLSQQEAVEEIRSYAMKWGLEAWMLIWYFMQCVKRDI
3,binds,rA11dslf02C (designed binder) PEPEKFLSELCKAYYEGKLSQIEAVEEIRSYARSWGLEAWKLIWYFMQCVKRDI
4,binds,rA11dslf02D (designed binder) PEPEKFLAELCKAYYEGKLSQPEAVEEIRSYARKWGLEAWKLVWYFMLCVKRDI
5,binds,rA11dslf02E (designed binder) PEPEQFLTELCKKYYEGKLSQPEAVEEIRKYARKWGLEAWKLIWYFMQCVKRDI

# Molecular target: T1, human IL-23R (hIL-23R), custom …
# Assay: yeast display FACS, combinatorial library
# Method: To further enhance affinity, we incorporated mutations previously shown to enhance binding in a combinatorial library that was then sorted for binding hIL-23R to convergence in 6 rounds. The final selection pools were plated on solid media, and individual clones sequenced. 26 unique combinatorial variants appearing in the final selection pool (SEQ ID NOS: 11-24 and 111-122) were selected for expression in E. coli and further biophysical characterization.
# as §1
# Yeast were then washed with PBSF and incubated for 2-5 minutes with stain solution (1:100 each anti-Myc-FITC and streptavidin-PE), washed, and resuspended for analysis and selection by FACS. FACS consecutive gates were set as follows: (1) cell granularity and size, selecting for yeast cells (BSC vs. FSC); (2) cell morphology, selecting singlets (FSC-height vs. FSC-width); (3) expression, selecting expressors by proxy of the Myc-tag (FITC fluorescence histogram); and (4) binding signal, selecting the top 1-5% relative to total population (PE vs. FITC).
row,binding result,Binder
1,binds,A14 (designed binder) MEEEKYLRELVKKYYEQKLSQPEAVEIVRKYARKKGLEAWKLIWAFMELVKRYI
2,binds,A10 (designed binder) MEEEKYLREQVKKYYEGKLSVVEAVEEVRKYARKKGLEAWKLIWAFMQLVKRDI
3,binds,A13 (designed binder) MEPEKYVREKVKKYYEGKLSQPEAVEEIRKYARKKGLEAWKLIWHFMQLVKRDI
4,binds,A11 (designed binder) MEEEKYVRELVKKYYEGKLSHQEAVVEIRKYARKKGLEAWKLVWMFMQLVKRNI
5,binds,A04 (designed binder) MEEEKYVRELVKKYYEGKLSHPEAVEEIRKYARKKGLEAWKLVWAFMQLVKRDI
6,binds,A07 (designed binder) MEEEKYLRELVKKYYEKKLSQPEAVEIIRKYARKKGLEAWKLVWAFMQLVKRDI
7,binds,A09 (designed binder) MEEEKYLRELVKKYYEQKLSQPEAVEIIRKYARKKGEEAWYLIWMFMELVKRDI
8,binds,A12 (designed binder) MEPEKYVRELVKKYYEQKLSQQEAVEIIRKYARKKGLEAWMLVWAFMQLVKRDI
9,binds,A05 (designed binder) MEEEKYVREQVKKYYEKKLSQPEAVEIIRKYARKKGLEAWKLIWAFMQLVKRDI
10,binds,A02 (designed binder) MEEEKYLRELVKKYYEQKLSHQEAVEIIRKYARKKGLEAWKLVWAFMQLVKRDI
11,binds,A01 (designed binder) MEPEKYLREKVKKYYEGKLSQPEAVEEIRKYARKKGLEAWKLVWYFMELVKRDI
12,binds,A06 (designed binder) MEPEKYVRELVKKYYEKKLSQPEAVEEIRKYARKKGLEAWMLVWHFMQLVKRDI
13,binds,B10 (designed binder) NLWVIFYVLNTIIKRTGDPTAKKLVKALQEAMKKWDEKATKELAKKATKYIRS
14,binds,B11 (designed binder) NLWIIFYQLNTIIKRTGDPTAKKLIKALQEANKKWDEKALKELAKKATKYIRS
15,binds,B04 (designed binder) NLWQIFYLLNTIIKRTGDPTAKKLKKALREALKKGDEKAVKELAKKAMKYIRS
16,binds,B07 (designed binder) NLWQIFYMLNTIFKRTGDPTAKKLLKALREATKKGDEKAMKELAKKATKYIRS
17,binds,B09 (designed binder) NLWQIFYVLNTIYKRTGDPTAKKLPKALREALKKNDEKATKELAKKAMKYIRS
18,binds,B12 (designed binder) NLWQIFYVLNTIYKRTGDPTAKKLPKALREAMKKNDEKAIKELAKKAMKYIRS
19,binds,B01 (designed binder) NLWMIFYLLNTIIKRTGDPTAKKLLKALQEALKKYDEKAIKELAKKAMKYIRS
20,binds,B02 (designed binder) NLWQIFYILNTIIKRTGDPTAKKLKKALREATKKGDEKAMKELAKKAMKYIRS
21,binds,B05 (designed binder) NLWMIFYLLNTIFKRTGDPTAKKLKKALNEAMKKGDEKAMKELAKKATKYIRS

# Molecular target: T1, human IL-23R (hIL-23R), custom …
# Assay: biolayer interferometry titration, biotinylated hIL-23R immobilised on streptavidin tips, 1:1 fit
# Method: Variants were first screened for relative binding to hIL-23R with biolayer interferometry (BLI). hIL-23R was immobilized on the BLI sensor tips and binding to each variant in solution at a constant concentration (50 nM) was measured to qualitatively determine relative performance of the variants. For the best-performing variants, binding constants (KD, including kₒₙ, and koff) were quantitatively determined with BLI titration experiments in triplicate.
# Qualitative and quantitative assessment of binding affinity was performed using biolayer interferometry (ForteBio Octet™ […] and associated software for analysis). Enzymatically biotinylated target protein (30 nM) was immobilized on streptavidin-coated sensor tips, then sequentially dipped in wells with: buffer only (baseline), inhibitor in solution (association), and buffer only (dissociation). Kinetic constants were determined from the mathematical fit of a 1:1 binding model.
Kd [nM],koff [s⁻¹],kon [M⁻¹ s⁻¹],Binder
0.25,0.00024,980000,A03 (designed binder) MEEEKYVRELVKKYYEGKLSQPEAVEEIRKYARKKGLEAWKLIWAFMQLVKRDI
0.37,0.00028,770000,A08 (designed binder) MEEEKYVRELVKKYYEKKLSQPEAVEEIRKYARKKGLEAWKLVWAFMELVKRNI
0.13,0.00034,2.6e+06,"A03dslf04 (designed binder, E. coli, purified) MEEEKCVRELCKKYYEGKLSQPEAVEEIRKCARKKGLEAWKLIWAFMQCVKRDIHHHHHH"
0.14,0.0002,1.5e+06,"A08dslf03 (designed binder, E. coli, purified) MEEEKYVRELCKKYYEKKLSQPEAVEEIRKYARKKGLEAWKLVWAFMECVKRNIHHHHHH"
0.46,0.00044,960000,"A05dslf01 (designed binder, E. coli, purified) MEEEKCVREQCKKYYEKKLSQPEAVEIIRKCARKKGLEAWKLIWAFMQCVKRDIHHHHHH"
0.32,0.00011,350000,B06 (designed binder) NLWVIFYLLNTIHKRTGDPTAKKLIKALDEAMKKGDEKATKELAKKALKYIRS
0.14,5.6e-05,400000,B03 (designed binder) NLWQIFYILNTIHKRTGDPTAKKLPKALREAMKKGDEKAMKELAKKALKYIRS
